Target: Ras binding domain (RBD) of the yeast Ras effector Byr2 fused to GST
Test: pull-down with GST-Byr2(RBD), Flag immunoblot densitometry
Conditions: read off a plot; for percent of parent (% of wild-type RasC peak (10 s cAMP)): 10 s cAMP stimulation; for percent of parent (% of wild-type RasC peak (10 s cAMP)) / percent of parent (% of RasC(WT)-CA binding): parent: est. 100; for response (% of wild-type RasC peak (10 s cAMP)): basal (before cAMP stimulation), parent: est. 20

Substance	percent of parent (% of wild-type RasC peak (10 s cAMP))	response (% of wild-type RasC peak (10 s cAMP))	percent of parent (% of RasC(WT)-CA binding)	response (% of RasC(WT)-CA binding) (parent: est. 15)
wild-type Flag-RasC (from UniProt P32253) E38A; N39A; S40A	18	19	–	–
constitutively active (CA) RasC-Q62L mutant, Flag-tagged (from UniProt P32253) Y41A	–	–	12	–
wild-type Flag-RasC (from UniProt P32253) T36A	8	11	–	–
wild-type Flag-RasC (from UniProt P32253) K138A; R164A; K167A	100	–	–	–
wild-type Flag-RasC (from UniProt P32253) K182A; K183A; R184A	17	8	–	–
wild-type Flag-RasC (from UniProt P32253) E38A	10	5	–	–
constitutively active (CA) RasC-Q62L mutant, Flag-tagged (from UniProt P32253) K138A; R164A; K167A	–	–	180	–
wild-type Flag-RasC (from UniProt P32253) Y41A	23	–	–	–
constitutively active (CA) RasC-Q62L mutant, Flag-tagged (from UniProt P32253) A31L	–	–	200	–
constitutively active (CA) RasC-Q62L mutant, Flag-tagged (from UniProt P32253) A31K	–	–	290	–
constitutively active (CA) RasC-Q62L mutant, Flag-tagged (from UniProt P32253) A31D	–	–	240	–
wild-type Flag-RasC (from UniProt P32253) A31D	42	27	–	–
wild-type Flag-RasC (from UniProt P32253) A31K	130	28	–	–
wild-type Flag-RasC (from UniProt P32253) Q62L	–	–	–	100
wild-type Flag-RasC (from UniProt P32253) C186A	2	2	–	–
wild-type Flag-RasC (from UniProt P32253) A31L	170	35	–	–
constitutively active (CA) RasC-Q62L mutant, Flag-tagged (from UniProt P32253) K182A; K183A; R184A	–	–	210	–
